The record followed here is the supplement of paper PMC10471632, “Protein engineering and iterative multimodule optimization for vitamin B6 production in Escherichia coli” (Nature Communications, 2023).

± gives the standard deviation of the averaged measurements.

B1: library; numbered along this chain (parent)
chain: MAELLLGVNIDHIATLRNARGTAYPDPVQAAFIAEQAGADGITVHLREDRRHITDRDVRILRQTLDTRMNLEMAVTEEMLAIAVETKPHFCCLVPEKRQEVTTEGGLDVAGQRDKMRDACKRLADAGIQVSLFIDADEEQIKAAAEVGAPFIEIHTGCYADAKTDAEQAQELARIAKAATFAASLGLKVNAGHGLTYHNVKAIAAIPEMHELNIGHAIIGRAVMTGLKDAVAEMKRLMLEARG

Variants of B1 are the subject of this series. The series can be described thus: pyridoxine titer in culture supernatant of strain expressing the PdxJ variant; higher = more PN produced (higher in vivo pathway activity of the PdxJ variant). As to conditions: host strain: E. coli LL006; 48 h; temperature: 37 °C; FM1.4. As to the method:
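Rosetta-designed single to quadruple mutants of E. coli PdxJ (PNP synthase) were expressed from pRSFDuet-1 in the engineered chassis E. coli LL006 (MG1655 ΔpdxH::pdxST, pta::Eme_pdxP). Strains were grown in 24 deep-well plates in 2 mL FM1.4 glycerol medium at 37 °C and 800 rpm for 48 h. Extracellular pyridoxine (PN) titer was quantified by HPLC with fluorescence detection; two biological replicates, with the WT pdxJ strain (LL137, about 0.5 mg/L) as control.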
Turning to MAELLLGVNIDHIATLRNARMTAYPDPVQAAFIAEQAGADGITVHLREDRRHITDRDVRILRQTLDTRMNLEMAVTEEMLAIAVETKPHFCCLVPEKRQEVTLEGGLDVAGQRDKMRDACKRLADAGIQVSLFIDADEEQIKAAAEVGAPFIEIHTGCYADAKTDAEQAQELARIAKAATFAASLGLKVNAGHGLTYHNVKAIAAIPEMHELNIGHAIIGRAVMTGLKDAVAEMKRLMLEARG [G21M T103L], the pyridoxine titer was found to be 0.63 ± 0.33 mg/L.

As to MAELLLGVNIDHVATLRNARGTAYPDPVQAAFIAEQAGADGITVHLREDRRHITDRDVRILRQTLDTRMNLEMAVTEEMLAIAVETKPHFCCLVPEKRQEVTTEGGLDVAGQRDKMRDACKRLADAGIQVSLFIDADEEQIKAAAEVGAPFIEIHTGCYADAKTDAEQAQELARIAKAATFAASLGLKVNAGHGLTYHNVKAIAAIPEMHEINIGHAIIGRAVMTGLKDAVAEMKRLMLEARG [I13V L212I], the pyridoxine titer was found to be 1.07 ± 0.3 mg/L.

With MAELLLGVNLDHVATLRNARGTAYPDPVQAAFIAEQAGADGITVHLREDRRHITDRDVRILRQTLDTRMNLEMAVTEEMLAIAVETKPHFCCLVPEKRQEVTTEGGLDVAGQRDKMRDACKRLADAGIQVSLFIDADEEQIKAAAEVGAPFIEIITGCYADAKTDAEQAQELARIAKAATFAASLGLKVNAGHGLTYHNVKAIAAIPEMHEINIGHAIIGRAVMTGLKDAVAEMKRLMLEARG [I10L I13V H155I L212I], the pyridoxine titer was 1.66 ± 0.076 mg/L.

On to MAELLLGVNLDHIATLRNARGTTYPDPVQAAFIAEQAGADGITVHLREDRRHITDRDVRILRQTLDTRMNLEMAVTEEMLAIAVETKPHFCCLVPEKRQIVTTEGGLDVAGQRDKMRDACKRLADAGIQVSLFIDADEEQIKAAAEVGAPFIEIHTGCYADAKTDAEQAQELARIAKAATFAASLGLKVNAGHGLTYHNVKAIAAIPEMHELNIGHAIIGRAVMTGLKDAVAEMKRLMLEARG [I10L A23T E100I], for which the pyridoxine titer was determined as 4.81 ± 0.11 mg/L.

As for MAELLLGVNIDHIATLRNARGTTYPDPVQAAFIAEQAGADGITVHLREDRRHITDRDVRILRQTLDTRMNLEMAVTEEMLAIAVETKPHFCCLVPEKRQIVTTEGGLDVAGQRDKMRDACKRLADAGIQVSLFIDADEEQIKAAAEVGAPFIEIHTGCYADAKTDAEQAQELARIAKAATFAASLGLKVNAGHQLTYHNVKAIAAIPEMHELNIGHAIGGRAVMTGLKDAVAEMKRLMLEARG [A23T E100I G194Q I219G], the pyridoxine titer was determined as 2.67 ± 0.14 mg/L.

For MAELLLGVNLDHIATLRNARGTTYPDPVQAAFIAEQAGADGITVHLREDRRHITDRDVRILRQTLDTRMNLEMAVTEEMLAIAVETKPHFCCLVPEKRQEVTTEGGLDVAGQRDKMRDACKRLADAGIQVSLFIDADEEQIKAAAEVGAPFIEIHTGCYADAKTDAEQAQELARIAKAATFAASLGLKVNAGHCLTYHNVKAIAAIPEMHELNIGHAIIGRAVMTGLKDAVAEMKRLMLEARG [I10L A23T G194C], the pyridoxine titer is 1.27 ± 0.028 mg/L.

With MAELLLGVNIDHIATLRNARGTTYPDPVQAAFIAEQAGADGITVHLREDRRHITDRDVRILRQTLDTRMNLEMAVTEEMLAIAVETKPHFCCLVPEKRQEVTTEGGLDVAGQRDKMRDACKRLADAGIQVSLFIDADEEQIKAAAEVGAPFIEIHTGCYADAKTDAEQAQELARIAKAATFAASLGLKVNAGHGLTYHNVKAIAAIPEMHEINIGHAIIGRAVMTGLKDAVAEMKRLMLEARG [A23T L212I], the pyridoxine titer stood at 1.09 ± 0.79 mg/L.

Consider MAELLLGVNIDHIATLRNARGTTYPDPVQAAFIAEQAGADGITIHLREDRRHITDRDVRILRQTLDTRMNLEMAVTEEMLAIAVETKPHFCCLVPEKRQEVTTTGGLDVAGQRDKMRDACKRLADAGIQVSLFIDADEEQIKAAAEVGAPFIEIHTGCYADAKTDAEQAQELARIAKAATFAASLGLKVNAGHGLTYHNVKAIAAIPEMHEINIGHAIIGRAVMTGLKDAVAEMKRLMLEARG [A23T V44I E104T L212I], for which the pyridoxine titer worked out at 4.95 ± 0.43 mg/L.

In the case of MAELLLGVNIDHIATLRNARGTAYPDPVQAAFIAEQAGADGITVHLREDRRHITDRDVRILRQTLDTRMNLEMAVTEEMLAIAVETKPHFCCLVPEKRQEVTTEGGLDVAGQRDKMRDACKRLADAGIQVSLFIDADEEQIKAAAEVGAPFIEIHTGCYADAKTDAEQAQELARIAKAATFAASLGLKVNAGHGLTYHNVKAIAAIPEMHELIIGHALIGRAVMTGLKDAVAEMKRLMLEARG [N213I I218L], the pyridoxine titer worked out at 1.1 ± 0.14 mg/L.

In the case of MAELLLGVNLDHIATLRNARGTYYPDPVQAAFIAEQAGADGITVHLREDRRHITDRDVRILRQTLDTRMNLEMAVTEEMLAIAVETKPHFCCLVPEKRQELTTTGGLDVAGQRDKMRDACKRLADAGIQVSLFIDADEEQIKAAAEVGAPFIEIHTGCYADAKTDAEQAQELARIAKAATFAASLGLKVNAGHGLTYHNVKAIAAIPEMHELNIGHAIIGRAVMTGLKDAVAEMKRLMLEARG [I10L A23Y V101L E104T], the pyridoxine titer is 0.246 ± 0.0055 mg/L.

Consider MAELLLGVNIDHIATLRNARGTAYPDPVQAAFIAEQAGADGITVHLREDRRHITDRDVRILRQTLDTRMNLEMAVTEEMLAIAVETKPHFCCLVPEKRQEVTTEGGLDVAGQRDKMRDACKRLADAGIQVSLFIDADEEQIKAAAEVGAPFIEIHTGCYADAKTDAEQAQELARIAKAATFAASLGLKVNAGHGLCYHNVKAIAAIPEMHELNIGHALIGRAVMTGLKDAVAEMKRLMLEARG [T196C I218L], for which the pyridoxine titer turned out to be 0.22 ± 0.057 mg/L.

As to MAELLLGVNIDHIATLRNARGTTYPDPVQAAFIAEQAGADGITVHLREDRRHITDRDVRILRQTLDTRMNLEMAVTEEMLAIAVETKPHFCCLVPEKRQEVTTEGGLDVAGQRDKMRDACKRLADAGIQVSLFIDADEEQIKAAAEVGAPFIEIHTGCYADAKTDAEQAQELARIAKAATFAASLGLKVNAGHGLTYHNVKAIAAIPEMHELNIGHALIGRAVMTGLKDAVAEMKRLMLEARG [A23T I218L], the pyridoxine titer came out at 1.04 ± 0.45 mg/L.
